# Assay results as given in article PMC4809600, “The Influence of Chronic Wound Extracts on Inflammatory Cytokine and Histatin Stability” (PLoS ONE, 2016).
# How the values were obtained:
# [1] = Stability in CWE with protease inhibitor cocktail (PIC), capillary zone electrophoresis; format: in vitro ADME, human; conditions: 1 mg/ml in PBS mixed 1:1 with CWE (1 mg/ml protein, pool of 5 donors) in PBS containing PIC (final 1:140 v/v), 37°C, CZE, ratio to imidazole, 0 h = 100%
# How it was run: (§1)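 Peptides or cytokines (1 mg/ml stock) mixed 1:1 with PBS or pooled chronic-wound extract (1 mg/ml protein, three pools of five donors), ±protease inhibitor cocktail, at 37 °C for up to 96 h. Analyzed by capillary zone electrophoresis (pH 2.5 phosphate, 200 nm), with peak ratio to imidazole standard relative to 0 h as % intact.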
# [2] = Stability in PBS, capillary zone electrophoresis; format: physicochemical; conditions: 1 mg/ml in PBS mixed 1:1 with PBS, 37°C, 96 h, CZE, UV 200 nm, ratio to imidazole internal standard, 0 h = 100%
# Method: To determine the stability of the different peptides in CWE, histatins and cytokines were dissolved in PBS at 1 mg/ml. Histatins and cytokines were incubated in a 1:1 ratio with (i) PBS, (ii) CWE in PBS, or (iii) CWE in PBS containing PIC, in a total volume of 25 μl. Imidazole (Sigma-Aldrich) was added as an internal standard, with a final concentration of 100 μg/ml. The mixtures were incubated at 37°C, and samples were taken at 0, 24, 48, 72 and 96 h. For histatins containing mixtures, additional samples were taken after 2, 4, 8 and 16 h of incubation.
# The samples were analyzed with a BioFocus 2000 capillary zone electrophoresis system (Bio-Rad Laboratories, Hercules, CA, USA) equipped with an uncoated fused-silica capillary of internal diameter 50 μm and a length of 24 cm. Samples were loaded by pressure injection (5 psi/sec). Separation was performed at 10 kV (cathode at the detector side) at 20°C using 0.1 M phosphate buffer (pH 2.5) as electrolyte and monitored continuously at 200 nm. Peaks were quantified with the BioFocus Integrator software. In order to quantify the percentage of intact peptides remaining after incubation with CWE, the ratios of histatins, rhIL-6 or rhCXCL8 to internal standard was set at 100% at 0h, and the ratios at the other incubation time points were related to this.
# [3] = Stability in chronic wound extracts (CWE), capillary zone electrophoresis; format: in vitro ADME, human; conditions: 37°C, CZE, 0 h = 100%; for Percentage intact, CWE 24h / Percentage intact, CWE 48h / Percentage intact, CWE 72h / Percentage intact, CWE 96h: 1 mg/ml in PBS mixed 1:1 with CWE (1 mg/ml protein, pool of 5 donors) in PBS, UV 200 nm, ratio to imidazole
# How it was run: as §1
substance,measurement,setting,value
"CXCL8 CS: rhCXCL8 from Cell Systems, Cat nr. CS-C1069, CXCL8 (1–77)","Percentage intact, CWE + PIC 24h",[1]; experiment 1 of 3,104.747%
same,"Percentage intact, CWE + PIC 24h",[1]; experiment 2 of 3,99.4146%
same,"Percentage intact, CWE + PIC 24h",[1]; experiment 3 of 3,99.4369%
same,"Percentage intact, CWE + PIC 48h",[1]; experiment 1 of 3,98.6704%
same,"Percentage intact, CWE + PIC 48h",[1]; experiment 2 of 3,94.4506%
same,"Percentage intact, CWE + PIC 48h",[1]; experiment 3 of 3,91.0713%
same,"Percentage intact, CWE + PIC 72h",[1]; experiment 1 of 3,96.1244%
same,"Percentage intact, CWE + PIC 72h",[1]; experiment 2 of 3,88.7106%
same,"Percentage intact, CWE + PIC 72h",[1]; experiment 3 of 3,87.6839%
same,"Percentage intact, CWE + PIC 96h",[1]; experiment 1 of 3,87.7388%
same,"Percentage intact, CWE + PIC 96h",[1]; experiment 2 of 3,86.0248%
same,"Percentage intact, CWE + PIC 96h",[1]; experiment 3 of 3,85.3459%
same,"Percentage intact, PBS 96h",[2]; experiment 1 of 3,91.5892%
same,"Percentage intact, PBS 96h",[2]; experiment 2 of 3,91.4833%
same,"Percentage intact, PBS 96h",[2]; experiment 3 of 3,87.1812%
same,"Percentage intact, CWE 24h",[3]; experiment 1 of 3,88.8666%
same,"Percentage intact, CWE 24h",[3]; experiment 2 of 3,92.8064%
same,"Percentage intact, CWE 24h",[3]; experiment 3 of 3,96.6818%
same,"Percentage intact, CWE 48h",[3]; experiment 1 of 3,87.3559%
same,"Percentage intact, CWE 48h",[3]; experiment 2 of 3,86.1407%
same,"Percentage intact, CWE 48h",[3]; experiment 3 of 3,89.0325%
same,"Percentage intact, CWE 72h",[3]; experiment 1 of 3,83.3251%
same,"Percentage intact, CWE 72h",[3]; experiment 2 of 3,83.9414%
same,"Percentage intact, CWE 72h",[3]; experiment 3 of 3,84.6704%
same,"Percentage intact, CWE 96h","[3]; 96 h, experiment 1 of 3",78.0414%
same,"Percentage intact, CWE 96h","[3]; 96 h, experiment 2 of 3",80.0263%
same,"Percentage intact, CWE 96h","[3]; 96 h, experiment 3 of 3",80.2041%
same,Starting material remaining intact after 96 h in CWE,"[3]; 1 mg/ml in PBS mixed 1:1 with CWE (1 mg/ml protein, pools of 5 donors), 96 h, mean of 3 independent experiments",79%
